Target: N-terminal six-histidine-tagged PepV (H6-PepV) (S. aureus) (UniProt Q2FXH9)
Test: pull-down; purified His-tagged bait (H6-PepV or SecA-H6) incubated 1 h at 4°C with cleared lysate of S. aureus RN4220 WT or Δspa, then Ni-NTA resin; immunoblot with αSecA and αPepV sera

Chain of UniProt Q2FXH9 (Q2FXH9 whole entry): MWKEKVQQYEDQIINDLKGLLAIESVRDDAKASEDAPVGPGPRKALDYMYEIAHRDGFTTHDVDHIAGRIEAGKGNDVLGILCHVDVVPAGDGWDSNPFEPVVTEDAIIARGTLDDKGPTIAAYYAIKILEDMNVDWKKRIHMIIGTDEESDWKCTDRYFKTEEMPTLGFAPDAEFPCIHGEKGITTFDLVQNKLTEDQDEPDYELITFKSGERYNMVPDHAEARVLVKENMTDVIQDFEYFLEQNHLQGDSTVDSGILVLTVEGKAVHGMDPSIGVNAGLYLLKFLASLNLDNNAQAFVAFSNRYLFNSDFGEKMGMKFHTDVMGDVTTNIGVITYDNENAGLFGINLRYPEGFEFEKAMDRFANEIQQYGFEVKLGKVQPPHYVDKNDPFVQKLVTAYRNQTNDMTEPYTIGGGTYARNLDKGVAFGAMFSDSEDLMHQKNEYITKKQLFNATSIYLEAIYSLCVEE

Question: With “SecA (endogenous, S. aureus RN4220) (from UniProt Q2YSH6 1-843) (natural protein)” as the substance, how does the SecA eluted from H6-PepV beads with Δspa lysate, percent less than with WT lysate read?
Answer: The SecA eluted from H6-PepV beads with Δspa lysate, percent less than with WT lysate was 30 % less.
